Data as given in US6518401B2, “Tumor necrosis factor stimulated gene 6 (TSG-6) protein” (New York University, priority 1991, dated 2003).

B1: IL-1: E. coli-derived recombinant human IL-1α (protein, UniProt P01583 113-271, looked up)
Interleukin-1 alpha: SAPFSFLSNVKYNFMRIIKYEFILNDALNQSIIRANDQYLTAAALHNLDEAVKFDMGAYKSSKDDAKITVILRISKTQLYVTAQDEDQPVLLKEMPEIPKTITGSETNLLFFWETHGTKNYFTSVAHPNLFIATKQDYWVCLAGGPPSITDFQILENQA
modifications: E. coli recombinant
notes: E. coli-derived recombinant human IL-1α
B2: IαI: inter-α-inhibitor purified from human serum; the TSG-6 binding protein (protein)
chain 1: AVLPQEEEGSGGGQLVTEVTKKEDSCQLGYSAGPCMGMTSRYFYNGTSMACETFQYGGCMGNGNNFVTEKECLQTCRTVAACNLPIVRGPCRAFIQLWAFDAVKGKCVLFPYGGCQGNGNKFYSEKECREYCGVPGDGDEELLRFSN
chain 2: SLPGESEEMMEEVDQVTLYSYKVQSTITSRMATTMIQSKVVNNSPQPQNVVFDVQIPKGAFISNFSMTVDGKTFRSSIKEKTVGRALYAQARAKGKTAGLVRSSALDMENFRTEVNVLPGAKVQFELHYQEVKWRKLGSYEHRIYLQPGRLAKHLEVDVWVIEPQGLRFLHVPDTFEGHFDGVPVISKGQQKAHVSFKPTVAQQRICPNCRETAVDGELVVLYDVKREEKAGELEVFNGYFVHFFAPDNLDPIPKNILFVIDVSGSMWGVKMKQTVEAMKTILDDLRAEDHFSVIDFNQNIRTWRNDLISATKTQVADAKRYIEKIQPSGGTNINEALLRAIFILNEANNLGLLDPNSVSLIILVSDGDPTVGELKLSKIQKNVKENIQDNISLFSLGMGFDVDYDFLKRLSNENHGIAQRIYGNQDTSSQLKKFYNQVSTPLLRNVQFNYPHTSVTDVTQNNFHNYFGGSEIVVAGKFDPAKLDQIESVITATSANTQLVLETLAQMDDLQDFLSKDKHADPDFTRKLWAYLTINQLLAERSLAPTAAAKRRITRSILQMSLDHHIVTPLTSLVIENEAGDERMLADAPPQDPSCCSGALYYGSKVVPDSTPSWANPSPTPVISMLAQGSQVLESTPPPHVMRVEND
chain 3: SKSSEKRQAVDTAVDGVFIRSLKVNCKVTSRFAHYVVTSQVVNTANEAREVAFDLEIPKTAFISDFAVTADGNAFIGDIKDKVTAWKQYRKAAISGENAGLVRASGRTMEQFTIHLTVNPQSKVTFQLTYEEVLKRNHMQYEIVIKVKPKQLVHHFEIDVDIFEPQGISKLDAQASFLPKELAAQTIKKSFSGKKGHVLFRPTVSQQQSCPTCSTSLLNGHFKVTYDVSRDKICDLLVANNHFAHFFAPQNLTNMNKNVVFVIDISGSMRGQKVKQTKEALLKILGDMQPGDYFDLVLFGTRVQSWKGSLVQASEANLQAAQDFVRGFSLDEATNLNGGLLRGIEILNQVQESLPELSNHASILIMLTDGDPTEGVTDRSQILKNVRNAIRGRFPLYNLGFGHNVDFNFLEVMSMENNGRAQRIYEDHDATQQLQGFYSQVAKPLLVDVDLQYPQDAVLALTQNHHKQYYEGSEIVVAGRIADNKQSSFKADVQAHGEGQEFSITCLVDEEEMKKLLRERGHMLENHVERLWAYLTIQELLAKRMKVDREERANLSSQALQMSLDYGFVTPLTSMSIRGMADQDGLKPTIDKPSEDSPPLEMLGPRRTFVLSALQPSPTHSSSNTQRLPDRVTGVDTD

Assays:
TSG-1 (IL-8) mRNA = assay: Northern blot analysis of TSG mRNA levels in FS-4 cells; assay type: cell-based, human; settings: growth arrested FS-4 cells, 2 h; TNF 20 ng/ml, CHX 10 ug/ml, IFN-β 500 U/ml, IFN-γ 100 U/ml, IL-1-α 1 ng/ml, EGF 25 ng/ml, TGF-β 2 ng/ml, poly(I).poly(C) 50 ug/ml, TPA 100 ng/ml, A23187 1 uM, forskolin 10 uM, dBcAMP 100 uM, IBMX 100 uM
Description: (§1) The human diploid FS-4 foreskin fibroblast cell line (Vilcek, J. et al, Proc. Natl. Acad. Sci. USA 70:3909-3913 (1973)) was used at passage level 15 in all experiments. FS-4 cells were grown in Eagle minimal essential medium (E-MEM) supplemented with 6 mM HEPES, 3 mM Tricine, 50 μg/ml gentamicin, and 5% heat inactivated (56° C., 30 min) fetal bovine serum (FBS; GIBCO Laboratories, Grand Island, N.Y.). For experiments, 4×10^6 cells were seeded in 175 cm^2 Falcon flasks, incubated at 37° C., and allowed to grow to confluence over 6 days. The confluent monolayers were washed once with phosphate buffered saline and replenished with E-MEM containing […] FBS. The cultures were incubated in this medium for another 72 h at 37° C. to let the cells become quiescent and then treated with the appropriate agents, as specified herein.
(§2) Cytoplasmic RNA was fractionated on a 1% agarose gel containing formaldehyde and blotted onto Zeta-probe blotting membranes (Bio-Rad Laboratories, Richmond, Calif.). Cytoplasmic RNA was loaded at 10 μg/lane. Prehybridization and hybridization of Northern blots were performed as described (Lin, J.-X. et al, supra). Filters were probed with 32P-labeled cDNA insert from recombinant M13 clones and/or with 32P-labeled internal reference pHe7 insert. Northern blots were quantified with a laser densitometer.
(§3) The increase in mRNA levels ranged from about 3-fold (TSG-21) to over 100-fold (TSG-6 and TSG-8).
(§4) Table 3 provides a summary of a large number of experiments in which levels of mRNAs corresponding to the 8 distinct TSG cDNAs were determined in FS-4 cells exposed to various agents by Northern blot analysis. Three of the mRNAs (corresponding to TSG-8, TSG-12 and TSG-14) were inducible by the protein synthesis inhibitor, cycloheximide (CHX). […] In contrast, induction of the remaining 3 mRNAs by TNF was inhibited or reduced in the presence of CHX. Five of the mRNAs were inducible by IFN-β, but only two of these responded to […]. Simultaneous treatment with IFN-β reduced inducibility of TSG-1 (=IL-8) mRNA by TNF, but increased the inducibility of TSG-6 and TSG-37 mRNAs. All mRNAs were inducible by IL-1 and by the doublestranded RNA poly(I)-poly(C) or the phorbol ester 12-O-tetradecanoyl phorbol 13-acetate (TPA), but the efficiency of induction by these agents varied. Epidermal growth factor (EGF) was moderately efficient in increasing TSG-21 (=collagenase) and TSG-27 (=stromelysin) mRNA levels, and weakly stimulated several other mRNAs. PDGF and transforming growth factor-β (TGF-β) were only weakly effective, as were dibutyryl cyclic AMP (dBcAMP) and the phosphodiesterase inhibitor, isobutyl methyl xanthine (IBMX).

TSG-12 mRNA = assay: as above; assay type: cell-based, human; settings: growth arrested FS-4 cells, 2 h; TNF 20 ng/ml, CHX 10 ug/ml, IFN-β 500 U/ml, IFN-γ 100 U/ml, IL-1-α 1 ng/ml, EGF 25 ng/ml, TGF-β 2 ng/ml, poly(I).poly(C) 50 ug/ml, TPA 100 ng/ml, A23187 1 uM, forskolin 10 uM, dBcAMP 100 uM, IBMX 100 uM
Description: as §1, §2, §3, §4

TSG-14 mRNA = assay: as above; assay type: cell-based, human; settings: growth arrested FS-4 cells, 2 h; TNF 20 ng/ml, CHX 10 ug/ml, IFN-β 500 U/ml, IFN-γ 100 U/ml, IL-1-α 1 ng/ml, EGF 25 ng/ml, TGF-β 2 ng/ml, poly(I).poly(C) 50 ug/ml, TPA 100 ng/ml, A23187 1 uM, forskolin 10 uM, dBcAMP 100 uM, IBMX 100 uM
Description: as §1, §2, §3, §4

[1] = tested on: TSG-21 (Collagenase) mRNA; assay: as above; assay type: cell-based, human; settings: growth arrested FS-4 cells, 16 h of treatment; TNF 20 ng/ml, CHX 10 ug/ml, IFN-β 500 U/ml, IFN-γ 100 U/ml, IL-1-α 1 ng/ml, EGF 25 ng/ml, TGF-β 2 ng/ml, poly(I).poly(C) 50 ug/ml, TPA 100 ng/ml, forskolin 10 uM, IBMX 100 uM
Description: as §1, §2, §3, §4

[2] = tested on: TSG-27 (Stromelysin) mRNA; assay: as above; assay type: cell-based, human; settings: growth arrested FS-4 cells, 16 h of treatment; TNF 20 ng/ml, CHX 10 ug/ml, IFN-β 500 U/ml, IFN-γ 100 U/ml, IL-1-α 1 ng/ml, EGF 25 ng/ml, TGF-β 2 ng/ml, poly(I).poly(C) 50 ug/ml, TPA 100 ng/ml, forskolin 10 uM, IBMX 100 uM
Description: as §1, §2, §3, §4

TSG-37 (MT-II) mRNA = assay: as above; assay type: cell-based, human; settings: growth arrested FS-4 cells, 2 h; TNF 20 ng/ml, CHX 10 ug/ml, IFN-β 500 U/ml, IFN-γ 100 U/ml, IL-1-α 1 ng/ml, EGF 25 ng/ml, TGF-β 2 ng/ml, poly(I).poly(C) 50 ug/ml, TPA 100 ng/ml, A23187 1 uM, forskolin 10 uM, dBcAMP 100 uM, IBMX 100 uM
Description: as §1, §2, §3, §4

TSG-6 mRNA = assay: as above; assay type: cell-based, human; settings: growth arrested FS-4 cells, 2 h; TNF 20 ng/ml, CHX 10 ug/ml, IFN-β 500 U/ml, IFN-γ 100 U/ml, IL-1-α 1 ng/ml, EGF 25 ng/ml, TGF-β 2 ng/ml, poly(I).poly(C) 50 ug/ml, TPA 100 ng/ml, A23187 1 uM, forskolin 10 uM, dBcAMP 100 uM, IBMX 100 uM
Description: as §1, §2, §3, §4

TSG-8 (MCAF) mRNA = assay: as above; assay type: cell-based, human; settings: growth arrested FS-4 cells, 2 h; TNF 20 ng/ml, CHX 10 ug/ml, IFN-β 500 U/ml, IFN-γ 100 U/ml, IL-1-α 1 ng/ml, EGF 25 ng/ml, TGF-β 2 ng/ml, poly(I).poly(C) 50 ug/ml, TPA 100 ng/ml, A23187 1 uM, forskolin 10 uM, dBcAMP 100 uM, IBMX 100 uM
Description: as §1, §2, §3, §4

[3] = target: T1, IαI purified from human serum (Homo sapiens, UniProt P02760+P19823); assay: TSG-6/IαI complex formation with purified proteins (SDS-PAGE, Western blot); assay type: binding; settings: preincubated 16 hrs. at 37° C. with chondroitinase, then mixed with the untreated partner protein
T1 construct: IαI is a complex protein in which the bikunin chain is linked to HC1 and HC2; supposed to determine the cleavage site for the C-terminal propeptide; from tissue; host or cells: human serum
T1 sequence (P98066 18-277 partner, one chain of several): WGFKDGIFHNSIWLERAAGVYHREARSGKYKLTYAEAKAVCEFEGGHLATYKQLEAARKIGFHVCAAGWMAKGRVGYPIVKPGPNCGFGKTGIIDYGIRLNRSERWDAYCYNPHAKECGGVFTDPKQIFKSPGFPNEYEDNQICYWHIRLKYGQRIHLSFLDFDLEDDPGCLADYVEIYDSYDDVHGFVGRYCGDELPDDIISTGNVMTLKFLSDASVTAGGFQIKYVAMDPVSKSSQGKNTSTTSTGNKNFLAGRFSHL
Description: Purified recombinant TSG-6 protein (lane 1) and IαI purified from human serum (lane 2) were mixed and incubated for 2 min. (lane 3), 5 min. (lane 4), 10 min. (lane 5), 15 min. (lane 6), 30 min. (lane 7), or for 60 min. (lane 8) at 37° C. or for 60 min. at 0° C. (lane 9). The reaction mixtures were then separated by SDS-PAGE and subjected to Western blot analysis with rabbit anti-TSG-6 serum.
Four micrograms of purified IαI and 3 μg of purified TSG-6 protein were incubated separately for 16 hrs. at 37° C. in the absence or presence of 30 milliunits of chondroitin sulfate ABC lyase. […]
Analysis of TSG-6 Binding to Carrier Protein. To determine the presence of TSG-6 binding protein, samples to be analyzed were mixed with an equal volume of TSG-6-containing serum-free supernatants of TN-5 B insect cells infected with recombinant Baculovirus and incubated at 37° C. for 30-60 min. (Purified TSG-6 protein was used in some experiments, as indicated.) Thereafter, the mixtures were analyzed for the presence of the 120-kDa complex by Western blotting with purified rabbit antibody to TSG-6 as described earlier (Wisniewski et al, J. Immunol. 151:6593-6601 (1993)). […]
Rapid Complex Formation between Recombinant TSG-6 Protein and IαI Purified from Human Serum at 37° C. The 120kDa TSG-6/IαI complex formed readily when purified TSG-6 protein and purified IαI were incubated together at 37° C. but not at 0° C. […]

| ability to form the TSG-6/IαI complex after pretreatment of the protein with chondroitin sulfate ABC lyase [3] | Molecule | Relative Increase in mRNA Level TSG-1 (IL-8) (TSG-1 (IL-8) mRNA) | Relative Increase in mRNA Level TSG-12 (TSG-12 mRNA) | Relative Increase in mRNA Level TSG-14 (TSG-14 mRNA) | Relative Increase in mRNA Level TSG-21 (Collagenase) [1] | Relative Increase in mRNA Level TSG-27 (Stromelysin) [2] | Relative Increase in mRNA Level TSG-37 (MT-II) (TSG-37 (MT-II) mRNA) | Relative Increase in mRNA Level TSG-6 (TSG-6 mRNA) | Relative Increase in mRNA Level TSG-8 (MCAF) (TSG-8 (MCAF) mRNA) |
| --- | --- | --- | --- | --- | --- | --- | --- | --- | --- |
|  | B1 | + | ++++ | ++++ | ++ | ++ | ++ | + | ++ |
| no longer able to form a complex | B2 |  |  |  |  |  |  |  |  |
